What was measured:
[1] = target: glycoprotein B of 42 Japanese clinical isolates (39 tested in MRC-5, 24 in ARPE-19 cells) (human cytomegalovirus)
[2] = target: glycoprotein B of eight Japanese clinical isolates (2009-889, I88-55, I144-44, H12-42, H12-43, H1-10, H1-15, MDU-1) (human cytomegalovirus)
[3] = target: T1, Human cytomegalovirus glycoprotein B (strain AD169) on infectious virions (Human cytomegalovirus, strain AD169, UniProt P06473); experiment: cell-based or functional assay
[4] = target: T2, Recombinant AD-1 protein from HCMV gB (strain AD169, amino acids 541-658), fused with glutathione … (Human cytomegalovirus, strain AD169, UniProt P06473); experiment: SPR; Biacore T200; EV2038 (0.33 μg/mL) captured by anti-IgG (Fc) antibody on a CM5 chip; recombinant AD-1 injected as analyte; 1:1 binding model; details: both partners purified
T2 construct: antigenic domain 1 (AD-1) of human cytomegalovirus glycoprotein B, strain AD169, amino acids 541-658, UniProtKB P06473; The printed size of 40.7 kDa fits the fusion with GST still on it; no cleavage is told; Vector pGEX4T; also called recombinant antigenic domain 1; source: E. coli BL21 (DE3), solubilized with 0.5% sarkosyl, purified (SDS-PAGE, electroelution, dialysis against PBS)
T2 sequence (P06473 541-658): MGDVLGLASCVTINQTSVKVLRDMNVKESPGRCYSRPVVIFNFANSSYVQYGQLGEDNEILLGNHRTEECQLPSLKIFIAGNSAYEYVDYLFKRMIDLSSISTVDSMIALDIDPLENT

[5] = target: T1, Human cytomegalovirus glycoprotein B …; experiment: SPR; Biacore T200; infectious virions (strain AD169, 1.6 × 10^8 plaque-forming units/mL) trapped by captured MSL-109 (anti-gH/gL); EV2038 injected as analyte; 1:1 binding model; details: one partner purified

T1 sequence (P06473 32-906): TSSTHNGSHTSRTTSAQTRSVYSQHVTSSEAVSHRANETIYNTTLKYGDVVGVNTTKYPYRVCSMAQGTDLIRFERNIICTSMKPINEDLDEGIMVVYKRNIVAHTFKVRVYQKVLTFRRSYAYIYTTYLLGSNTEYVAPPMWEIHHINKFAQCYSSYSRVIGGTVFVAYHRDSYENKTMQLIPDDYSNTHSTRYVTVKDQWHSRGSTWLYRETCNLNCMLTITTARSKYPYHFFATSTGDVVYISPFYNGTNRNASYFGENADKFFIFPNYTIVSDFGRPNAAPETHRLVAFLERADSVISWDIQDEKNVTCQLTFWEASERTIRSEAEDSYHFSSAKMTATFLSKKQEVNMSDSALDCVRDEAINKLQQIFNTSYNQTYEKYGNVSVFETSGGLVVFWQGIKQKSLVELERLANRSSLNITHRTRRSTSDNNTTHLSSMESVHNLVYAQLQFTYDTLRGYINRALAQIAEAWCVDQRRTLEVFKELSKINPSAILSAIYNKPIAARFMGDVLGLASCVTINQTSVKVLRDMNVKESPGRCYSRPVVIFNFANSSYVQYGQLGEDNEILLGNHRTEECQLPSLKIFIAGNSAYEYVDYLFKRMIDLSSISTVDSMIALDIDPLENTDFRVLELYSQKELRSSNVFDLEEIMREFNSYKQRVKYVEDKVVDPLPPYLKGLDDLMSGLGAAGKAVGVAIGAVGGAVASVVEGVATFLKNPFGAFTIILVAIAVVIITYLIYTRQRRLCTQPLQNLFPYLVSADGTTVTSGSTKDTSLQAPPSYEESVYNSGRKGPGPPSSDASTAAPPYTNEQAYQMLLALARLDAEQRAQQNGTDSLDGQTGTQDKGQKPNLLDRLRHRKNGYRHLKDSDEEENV

B1: EV2038 (IgG1 lambda), fully human neutralizing monoclonal antibody (antibody, V domains shown)
VH: QVQLQQWGAGLLKPSETLSLTCAVYGGSFSGYYWGWIRQPPGKGLEWIGEINHSGSANSNPSLKSRVTMSVDTSKNQFSLKVSSVTAADTAVYFCARVTRDLEWIPGDYYMDVWGKGTTVTVSS
VL: QSVLTQPPSASGTPGQRVSISCSGSLSNIGTNYVYWYQQLPGTAPKLLIFKNNQRPSGVPDRFSGSKSGTSASLAISGLRSEDEADYYCAAWDDSLNGYVFGTGTKVTVL
notes: heavy chain framework 1: only the Kabat CDRs are printed; heavy chain CDR1 (Kabat); heavy chain CDR2 (Kabat); heavy chain CDR3 (Kabat); constant region of human IgG1 heavy chain; light chain framework 1: only the Kabat CDRs are printed; light chain CDR1 (Kabat); light chain CDR2 (Kabat); light chain CDR3 (Kabat); constant region of a human lambda light chain; IgG1 lambda; the frameworks are not; …
IC50 of neutralisation of HCMV infection, plaque reduction assay, 24 clinical isolates in ARPE-19 cells [1]: 0.013 to 0.105 mg/L
IC50 of neutralisation of HCMV infection, plaque reduction assay, 39 clinical isolates in MRC-5 cells [1]: 0.013 to 0.103 mg/L
IC90 of neutralisation of HCMV infection, plaque reduction assay, 24 clinical isolates in ARPE-19 cells [1]: 0.208 to 1.03 mg/L
IC90 of neutralisation of HCMV infection, plaque reduction assay, 39 clinical isolates in MRC-5 cells [1]: 0.215 to 0.901 mg/L
IC50 of inhibition of viral cell-to-cell spread, focus expansion assay, eight clinical isolates in ARPE-19 cells [2]: 1 to 3.1 mg/L
IC90 of inhibition of viral cell-to-cell spread, focus expansion assay, eight clinical isolates in ARPE-19 cells [2]: 13 to 19 mg/L
IC50 of neutralisation of HCMV infection (strain AD169) after two passages of virus grown with mAbs, preliminary study [3]: 0.08 to 0.18 mg/L
IC50 of neutralisation of HCMV infection (strain AD169) in MRC-5 cells, without anti-CMV agents [3]: ~0.1 mg/L
Kd [4]: 5.73 nM
koff [4]: 0.000279 s⁻¹
Kd [5]: 0.224 nM
koff [5]: 0.00113 s⁻¹

Source: article PMC10187921, “A fully human neutralizing monoclonal antibody targeting a highly conserved epitope of the human cytomegalovirus glycoprotein B” (PLOS ONE, 2023)
